{"source": "patent US20230287118A1", "about": "(published 2023)", "binders": {"B1": {"name": "anti-CD20/anti-CD3 TCB molecule B: \"2+1 IgG CrossFab, inverted\" with charge modifications (VH/VL exchange in CD3 binder, charge modification in CD20 binders) (bispecific antibody)", "heavy 1": "not shown", "heavy 2": "QVQLVQSGAEVKKPGSSVKVSCKASGYAFSYSWINWVRQAPGQGLEWMGRIFPGDGDTDYNGKFKGRVTITADKSTSTAYMELSSLRSEDTAVYYCARNVFDGYWLVYWGQGTLVTVSSASTKGPSVFPLAPSSKSTSGGTAALGCLVEDYFPEPVTVSWNSGALTSGVHTFPAVLQSSGLYSLSSVVTVPSSSLGTQTYICNVNHKPSNTKVDEKVEPKSCDKTHTCPPCPAPEAAGGPSVFLFPPKPKDTLMISRTPEVTCVVVDVSHEDPEVKFNWYVDGVEVHNAKTKPREEQYNSTYRVVSVLTVLHQDWLNGKEYKCKVSNKALGAPIEKTISKAKGQPREPQVCTLPPSRDELTKNQVSLSCAVKGFYPSDIAVEWESNGQPENNYKTTPPVLDSDGSFFLVSKLTVDKSRWQQGNVFSCSVMHEALHNHYTQKSLSLSP", "light 1": "DIVMTQTPLSLPVTPGEPASISCRSSKSLLHSNGITYLYWYLQKPGQSPQLLIYQMSNLVSGVPDRFSGSGSGTDFTLKISRVEAEDVGVYYCAQNLELPYTFGGGTKVEIKRTVAAPSVFIFPPSDRKLKSGTASVVCLLNNFYPREAKVQWKVDNALQSGNSQESVTEQDSKDSTYSLSSTLTLSKADYEKHKVYACEVTHQGLSSPVTKSFNRGEC", "light 2": "EVQLLESGGGLVQPGGSLRLSCAASGFTFSTYAMNWVRQAPGKGLEWVSRIRSKYNNYATYYADSVKGRFTISRDDSKNTLYLQMNSLRAEDTAVYYCVRHGNFGNSYVSWFAYWGQGTLVTVSSASVAAPSVFIFPPSDEQLKSGTASVVCLLNNFYPREAKVQWKVDNALQSGNSQESVTEQDSKDSTYSLSSTLTLSKADYEKHKVYACEVTHQGLSSPVTKSFNRGEC", "notes": "Bivalent for CD20, monovalent for CD3; also called CD20 TCB; CD20 TCB_2+1_with charges, inverted"}}, "key": {"cynomolgus monkey CD20": {"target": "T1, cynomolgus monkey CD20 (cynomolgus monkey, UniProt M4ZHZ6 1-297)", "T1 construct": "whole, on cells; also called cynomolgus CD20", "T1 sequence": "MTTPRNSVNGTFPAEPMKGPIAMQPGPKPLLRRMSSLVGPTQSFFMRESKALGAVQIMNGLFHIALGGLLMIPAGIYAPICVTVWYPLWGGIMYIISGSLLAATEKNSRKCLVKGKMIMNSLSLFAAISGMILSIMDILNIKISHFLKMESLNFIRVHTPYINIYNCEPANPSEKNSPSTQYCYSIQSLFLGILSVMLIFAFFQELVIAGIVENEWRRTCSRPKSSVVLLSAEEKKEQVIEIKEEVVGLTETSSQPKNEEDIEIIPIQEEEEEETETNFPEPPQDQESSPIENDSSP", "assay": "flow cytometry, AlexaFluor488-labelled TCB on CD20-expressing B cells among cynomolgus monkey PBMCs", "protocol": "(§1) The crossreactivity of the anti-CD3/anti-CD20 TCB antibody shown as molecule “B” above was evaluated by assessing binding to human and cynomolgus monkey CD20-expressing B cells and CD3-expressing CD4 and CD8 T cells. Briefly, heparinized human and cynomolgus monkey blood from healthy donors was used to isolate PBMCs by density centrifugation. Isolated PBMCs were counted, checked for viability and resuspended at 4×10⁶ cells/ml in FACS buffer (100 μl PBS 0.1% BSA). 100 μl of cell suspension (containing 0.4×10⁶ cells) were plated into 96-well_U-bottom plate and centrifuged (420×g, 4 min). After removal of the supernatants, PBMCs were incubated for 30 min at 4° C. with increasing concentrations of the CD20 TCB-AlexaFlour488 (200 pM-200 nM), washed twice with cold PBS 0.1% BSA, re-incubated for further 30 min at 4° C. with human/cynomolgus cross-reactive antibodies: anti-CD19 (in house, clone 8B8)-AlexaFluor647, anti-CD4 (BD, #552838, clone L200)-PerCPCy5.5 and anti-CD8 (BD, #555367, clone RPA-T8)-PE."}, "human CD20 [1]": {"target": "T2, human CD20 (human, UniProt P11836 1-297)", "T2 construct": "whole, on cells", "T2 sequence (looked up)": "T1 sequence with P25S, L31F, A51T, V157A, R217K, S226N, V227I, V239T", "assay": "flow cytometry, AlexaFluor488-labelled TCB on CD20-expressing B cells among human PBMCs", "protocol": "as §1"}, "human CD20 [2]": {"target": "T2, human CD20", "assay": "cell-based or functional assay"}, "human CD20 [3]": {"target": "T2, human CD20", "assay": "cell-based or functional assay", "remark": "listed apart in the source"}, "human CD20 [4]": {"target": "T2, human CD20", "assay": "flow cytometry on CD20-expressing WSU DLCL2 cells, PE anti-human Fc secondary antibody", "protocol": "(§2) The binding of the anti-CD3/anti-CD20 TCB antibody shown as molecule “B” above was tested on human CD20-expressing Diffuse Large-Cell B Cell Lymphoma (DLBCL) cell line (WSU DLCL2, 0.5-1×10⁶ CD20 binding sites) and CD3-expressing immortalized T lymphocyte line (Jurkat). Briefly, cells were harvested, counted, checked for viability and resuspended at 1.5×10⁶ cells/ml in FACS buffer (PBS 0.1% BSA).\n(§3) Binding curves and the EC50 values related to binding were calculated using GraphPadPrism5."}, "human CD3 [5]": {"target": "T3, human CD3 (human, UniProt P07766 23-207)", "assay": "cell-based or functional assay"}, "human CD20 [6]": {"target": "T2, human CD20", "assay": "cell-based or functional assay", "remark": "listed apart in the source"}, "human CD3 [7]": {"target": "T3, human CD3", "assay": "flow cytometry on CD3-expressing Jurkat cells, PE anti-human Fc secondary antibody", "protocol": "as §2, §3"}, "human CD20 [8]": {"target": "T2, human CD20", "assay": "cell-based or functional assay", "remark": "listed apart in the source"}}, "note": "Residue numbers refer to the chain shown, from its start.", "data": [{"binder": "B1", "values": [{"measurement": "EC50", "setting": "cynomolgus monkey CD20", "value": 3300, "unit": "pM"}, {"measurement": "EC50", "setting": "human CD20 [1]", "value": 4800, "unit": "pM"}, {"measurement": "EC50 24 h of CD4 T cell activation, Z138 cells (average of 3 donors)", "setting": "human CD20 [2]", "value": 1.2, "unit": "pM"}, {"measurement": "EC50 24 h of CD8 T cell activation, Z138 cells (average of 3 donors)", "setting": "human CD20 [2]", "value": 2.2, "unit": "pM"}, {"measurement": "EC50 24 h of tumor lysis, Z138 cells (average of 3 donors)", "setting": "human CD20 [2]", "value": 1.6, "unit": "pM"}, {"measurement": "EC50 24 h of B cell depletion in normal human whole blood", "setting": "human CD20 [3]", "value": 13.2, "unit": "pM"}, {"measurement": "EC50", "setting": "human CD20 [4]", "value": 980, "unit": "pM"}, {"measurement": "EC50 of CD3 activation, Jurkat-NFAT reporter cells co-cultured with Z138 cells (luminescence, 6 h)", "setting": "human CD3 [5]", "value": 29, "unit": "pM"}, {"measurement": "EC50 of tumor cell lysis (LDH release), Z138 cells + human PBMCs, 21-24 h, panel A", "setting": "human CD20 [6]", "value": 2.18, "unit": "pM"}, {"measurement": "EC50 of tumor cell lysis (LDH release), Z138 cells + human PBMCs, 21-24 h, panel B", "setting": "human CD20 [6]", "value": 0.96, "unit": "pM"}, {"measurement": "EC50", "setting": "human CD3 [7]", "value": "~12500", "unit": "pM"}, {"measurement": "EC50 24 h of tumor lysis, Ocly-18 cells", "setting": "human CD20 [8]", "value": 0.3, "unit": "pM"}, {"measurement": "EC50 24 h of tumor lysis, SU-DHL-5 cells", "setting": "human CD20 [8]", "value": 1.2, "unit": "pM"}, {"measurement": "EC50 24 h of tumor lysis, SU-DHL-8 cells", "setting": "human CD20 [8]", "value": 0.5, "unit": "pM"}, {"measurement": "EC50 24 h of tumor lysis, U2932 cells", "setting": "human CD20 [8]", "value": 0.9, "unit": "pM"}]}]}
